The chains are these.
B1: OR4K15 (parent)
chain: GUUAACGGUCAUAGGCCAUGGAAACUAGGAGCACCAUUUCGCUGCCAGUGAAGAAAUGAACAAAGAAAAUCUGGGCCAGGCAGGCAUCAAAAGAAAUAGUCUUGCGCUCAACCAGAAAGUCUGUAAUCAUUUUAAGGGUA

Variants of B1 are the subject of this data set. Kind of data set: self-cleavage, relative activity (ratio to wild type); higher = more cleavage; in vitro, sequencing; the parent is a self-cleaving ribozyme.
Consider U37C A117U, for which the self-cleavage is 1.11.
In the case of G115U U130C it was 0.07; in that of A56G A62C, 1.26; in that of A5U U124C, 0.99.
The figure for U97C A110U is 1.02; for A54G A96G it is 1.5.
The figure for U37A U127C is 0.71.
As to A36C A60G, the self-cleavage was 0.49.
As to U26C A51G, the self-cleavage was determined as 1.72.
The figure for U49C U100C is 2.
In the case of A91C A98G it was 0.56; in that of U43A A68U, 1.7.
The figure for G21A A52G is 1.57; for A36C A66U it is 1.68.
Turning to G74A, the self-cleavage came out at 0.12.
In the case of A64G A114U it was 0.1; in that of U39G A126G, 1.03.
In the case of A5G A98G it was 0.7.
In the case of A78G U100G it was 0.35.
As to U12A U139C, the self-cleavage turned out to be 1.59.
With G7A A67G, the self-cleavage is 1.61.
The figure for U49C A96G is 1.
The figure for A55G A68C is 2.11; for A59U A78G it is 0.27.
In the case of A23G, the self-cleavage is 0.97.
In the case of A56G G99C it was 0.2; in that of U43A A118U, 0.9.
Regarding U2A U108C, the self-cleavage came to 0.04.
Take C46A A56G: the self-cleavage was 1.81.
Consider A82C A89C, for which the self-cleavage was determined as 0.16.
With A82U U102C, the self-cleavage was determined as 0.33.
In the case of A86G A89U it was 1.86; in that of C88U U120C, 1.46; in that of U108C U130C, 0.01.
In the case of A66G G136A, the self-cleavage is 1.72.
The figure for A22G A89U is 1.43; for U49A U130C it is 1.53.
The figure for U100A C113U is 0.11; for U37C A135U it is 2.17.
Consider A89G A110U, for which the self-cleavage came out at 0.77.
In the case of A78G A96G it was 0.24.
The figure for A54U U122A is 1.45.
As for A95G U120A, the self-cleavage was 2.78.
In the case of A30G A140G it was 1.34; in that of A59U A96U, 0.97; in that of A18C U103C, 0.86.
Take A36C A94G: the self-cleavage turned out to be 1.94.
In the case of A52G U57C it was 1.1; in that of C107A U122C, 0.01.
In the case of A30G A117G it was 1.48.
Turning to A23U A36U, the self-cleavage stood at 1.53.
In the case of A24G U57C it was 1.51; in that of A92G A117U, 0.8.
In the case of A92U U100C it was 2.23; in that of A24G A125G, 0.43; in that of A117G U127C, 0.77.
In the case of U70C U132C it was 0.96.
Regarding A51G C109U, the self-cleavage turned out to be 0.4.
In the case of A62G A110U it was 2.32; in that of A5G A36C, 1.79; in that of U2G, 0.92.
Regarding U12C U37C, the self-cleavage was determined as 1.04.
The figure for A69U U100C is 2.44; for A47G A94C it is 1.1; for U39A G138A it is 0.14.
The figure for C25U A60G is 1.88; for C10G A60G it is 0.77.
The figure for A92G U139C is 1.75; for C34U U122C it is 2.62.
Consider A60G G115A, for which the self-cleavage came out at 0.04.
Turning to A5G A30G, the self-cleavage turned out to be 1.03.
The figure for A5U A82G is 0.6.
In the case of A24C A78C it was 0.36; in that of A5U A56G, 1.76.
The figure for G7A U70C is 1; for C77U A125G it is 1.37.
Take A69U A125G: the self-cleavage was found to be 0.75.
The figure for A96C U103C is 0.9; for A11G A18G it is 1.36.
The figure for A60G A116U is 0.31; for U26C U72A it is 0.33; for G29U it is 1.83.
The figure for A66G C105G is 0.03.
On to G44A U57C, for which the self-cleavage is 1.84.
The figure for A23U A91G is 0.79.
In the case of U2C U37G, the self-cleavage was determined as 0.75.
In the case of A24G G41U it was 1.18.
The figure for A67U A116C is 0.1; for A118G A134G it is 0.71.
The figure for A59U U100A is 0.74.
For the variant A63G A134G, the self-cleavage is 1.47.
The figure for U38C A96G is 1.51; for A60G G104A it is 0.02.
In the case of U43C A47U it was 0.96.
The figure for A24U C105U is 0.17.
With A5U A116G, the self-cleavage was found to be 1.13.
The figure for A36C A114G is 0.9; for U9A A111G it is 0.03; for A66G G104U it is 0.02.
In the case of C6A A33U, the self-cleavage was found to be 1.06.
In the case of C61U C101U it was 0.54; in that of A86U C109U, 0.6.
The figure for G29A A92U is 1.86.
Regarding G73U, the self-cleavage stood at 0.05.
The figure for A64U A110G is 0.11; for A91G U139C it is 1.71; for A11C A63G it is 1.91.
For A60U U87A, the self-cleavage was 1.61.
In the case of U72A A92G, the self-cleavage stood at 0.26.
In the case of A52G A134G it was 1.25; in that of A51U U57C, 1.58; in that of G7A U100A, 0.82.
In the case of A82G A95G it was 1.23; in that of A52U U70C, 1.72.
In the case of A27U A52U it was 2; in that of A11G C61A, 0.69.
Take A33U C101A: the self-cleavage turned out to be 0.35.
For A82G U139G, the self-cleavage came out at 0.26.
The figure for A13G A47U is 1.26; for A62G A92U it is 1.01; for A24G A78G it is 0.21.
U3C A129G: the self-cleavage came out at 1.14.
The figure for A24G G28A is 1.11; for U12A U102C it is 1.73.
In the case of G83A U122A it was 1.13; in that of A56G A68U, 1.86; in that of U57A U102G, 0.16.
The figure for U39C C81U is 0.63.
Consider A69G, for which the self-cleavage came to 1.16.
The figure for U26A A62G is 1.75; for U37C U49A it is 1.64.
With U103C A117C, the self-cleavage is 0.29.
In the case of A89G U100C it was 2.
The figure for U103A U122C is 0.35; for A60U U108C it is 0.01; for A36U A117G it is 1.52.
In the case of A4U it was 1.19; in that of A92G C109U, 0.59.
For U87A U132C, the self-cleavage came to 1.35.
The figure for U49C A134G is 1.38.
The figure for A56U A62U is 1.15.
Take A118G G138A: the self-cleavage worked out at 1.14.
In the case of A91C A129G it was 1.15; in that of G48A U72A, 0.2.
In the case of A36G C85U it was 0.98.
Regarding U130C U139C, the self-cleavage was 1.09.
The figure for U43C A63U is 0.91.
The figure for C40U A69G is 0.94.
The figure for A110C A134G is 0.41; for C6A U43C it is 0.5; for G41A A129G it is 0.61.
On to A11U C16U, for which the self-cleavage worked out at 2.22.
On to U9C U70C, for which the self-cleavage came out at 0.77.
Turning to C40A A60G, the self-cleavage is 1.56.
For A52G A63G, the self-cleavage is 1.33.
The figure for G44A U132A is 1.35; for U49C U97C it is 1.29.
As to U19A U37C, the self-cleavage was 0.9.
The figure for A67G C88U is 1.97; for A110G G123A it is 0.29.
The figure for C6U A23G is 1.15.
Take A118G A135G: the self-cleavage turned out to be 1.15.
Take A51U A90G: the self-cleavage stood at 0.91.
The figure for G41A A67G is 1.02; for U108A G123A it is 0.01; for U3C A22G it is 1.33.
The figure for U12C A96U is 1.32.

(Values after the RNAGym collection of RNA variant scans (doi:10.7554/elife.90254).)
